Measurements as given in the supplement of paper PMC9112550, “Optimization of the antimicrobial peptide Bac7 by deep mutational scanning” (BMC Biology, 2022).

Each sequence was assayed on Escherichia coli TOP10 (assay: shrunken log2 fold change of peptide-encoding DNA abundance (4.5 h post-induction vs induction); higher = less antimicrobial activity (less host growth inhibition)). Conditions: time post-induction: 4.5 h; library: site-saturation at positions 5, 18, 19, 20.
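Further: peptides expressed intracellularly from a pBAD plasmid library in pooled LB shake-flask culture, induced with 0.3% L-arabinose, DNA abundance read by NGS, three biological replicates, DESeq2 with apeglm shrinkage.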

| Sequence | shrunken log2 fold change |
| --- | --- |
| RRIRMRPPRLPRPRPRPWVSPRP | -0.0423 |
| RRIRSRPPRLPRPRPRPDLCPRP | -0.159 |
| RRIRKRPPRLPRPRPRPEAEPRP | 3.31 |
| RRIRHRPPRLPRPRPRPYQGPRP | -0.00674 |
| RRIRPRPPRLPRPRPRPDTSPRP | -0.738 |
| RRIRIRPPRLPRPRPRPTGSPRP | 0.087 |
| RRIRVRPPRLPRPRPRPRVTPRP | 0.274 |
| RRIRNRPPRLPRPRPRPLICPRP | -0.771 |
| RRIRCRPPRLPRPRPRPLPKPRP | 0.258 |
| RRIRCRPPRLPRPRPRPTQTPRP | 0.286 |
| RRIRWRPPRLPRPRPRPIQWPRP | 0.25 |
| RRIRLRPPRLPRPRPRPATHPRP | 0.253 |
| RRIRTRPPRLPRPRPRPIEMPRP | -0.25 |
| RRIRERPPRLPRPRPRPTTIPRP | -0.627 |
| RRIRQRPPRLPRPRPRPMEYPRP | -0.479 |
| RRIRLRPPRLPRPRPRPQCCPRP | 0.0421 |
| RRIRERPPRLPRPRPRPWEPPRP | 0.073 |
| RRIRDRPPRLPRPRPRPMIPPRP | -0.184 |
| RRIRQRPPRLPRPRPRPPDNPRP | 0.00496 |
| RRIRHRPPRLPRPRPRPKCCPRP | -0.0444 |
| RRIRERPPRLPRPRPRPARMPRP | 0.0587 |
| RRIRTRPPRLPRPRPRPKMCPRP | 0.15 |
| RRIRVRPPRLPRPRPRPDTAPRP | -0.164 |
| RRIRFRPPRLPRPRPRPTHPPRP | -0.0806 |
| RRIRIRPPRLPRPRPRPVPWPRP | 2.5 |

| Sequence | shrunken log2 fold change |
| --- | --- |
| RRIRKRPPRLPRPRPRPGCAPRP | 0.82 |
| RRIRRRPPRLPRPRPRPRAVPRP | 0.427 |
| RRIRRRPPRLPRPRPRPKGHPRP | 0.127 |
| RRIRTRPPRLPRPRPRPVIIPRP | -0.213 |
| RRIRVRPPRLPRPRPRPLDNPRP | -0.0763 |
| RRIRHRPPRLPRPRPRPHMRPRP | -0.00342 |
| RRIRCRPPRLPRPRPRPAMGPRP | -0.0638 |
| RRIRRRPPRLPRPRPRPEGWPRP | 3.17 |
| RRIRKRPPRLPRPRPRPACTPRP | 0.219 |
| RRIRLRPPRLPRPRPRPEMLPRP | -0.108 |
| RRIRFRPPRLPRPRPRPICYPRP | 0.00889 |
| RRIRIRPPRLPRPRPRPVLYPRP | -0.598 |
| RRIRTRPPRLPRPRPRPSYLPRP | -0.416 |
| RRIRDRPPRLPRPRPRPARTPRP | 0.364 |
| RRIRFRPPRLPRPRPRPDLGPRP | 0.106 |
| RRIRYRPPRLPRPRPRPLQDPRP | 0.0382 |
| RRIRDRPPRLPRPRPRPDFRPRP | -0.0735 |
| RRIRNRPPRLPRPRPRPKQIPRP | -0.294 |
| RRIRWRPPRLPRPRPRPWPTPRP | 0.336 |
| RRIRCRPPRLPRPRPRPNEWPRP | 0.0357 |
| RRIRWRPPRLPRPRPRPKGQPRP | -0.0148 |
| RRIRLRPPRLPRPRPRPVAHPRP | -0.454 |
| RRIRDRPPRLPRPRPRPHSTPRP | -0.0545 |
| RRIRGRPPRLPRPRPRPAAKPRP | 1.02 |
| RRIRMRPPRLPRPRPRPRVGPRP | 1.02 |

| Sequence | shrunken log2 fold change |
| --- | --- |
| RRIRKRPPRLPRPRPRPHWYPRP | 0.0533 |
| RRIRARPPRLPRPRPRPRCNPRP | 0.197 |
| RRIRGRPPRLPRPRPRPGSNPRP | 0.0237 |
| RRIRRRPPRLPRPRPRPEKGPRP | -0.0235 |
| RRIRCRPPRLPRPRPRPKPRPRP | 0.749 |
| RRIRMRPPRLPRPRPRPLWKPRP | 0.0435 |
| RRIRTRPPRLPRPRPRPVLSPRP | -0.328 |
| RRIRCRPPRLPRPRPRPGPIPRP | 0.367 |
| RRIRLRPPRLPRPRPRPTQCPRP | 0.0455 |
| RRIRHRPPRLPRPRPRPPKYPRP | -0.349 |
| RRIRWRPPRLPRPRPRPMPRPRP | 0.623 |
| RRIRERPPRLPRPRPRPKEPPRP | 0.131 |
| RRIRMRPPRLPRPRPRPCRWPRP | 0.00911 |
| RRIRNRPPRLPRPRPRPCHIPRP | -0.366 |
| RRIRKRPPRLPRPRPRPNVCPRP | -0.144 |
| RRIRMRPPRLPRPRPRPERAPRP | 2.76 |
| RRIRSRPPRLPRPRPRPVPYPRP | -0.248 |
| RRIRLRPPRLPRPRPRPSLRPRP | 0.00716 |
| RRIRWRPPRLPRPRPRPTQRPRP | 0.133 |
| RRIRYRPPRLPRPRPRPTLQPRP | 0.201 |
| RRIRWRPPRLPRPRPRPRHFPRP | 0.223 |
| RRIRVRPPRLPRPRPRPIWWPRP | 1.44 |
| RRIRSRPPRLPRPRPRPDSEPRP | 0.139 |
| RRIRMRPPRLPRPRPRPGVVPRP | 0.761 |
| RRIRERPPRLPRPRPRPKMEPRP | -0.0415 |

| Sequence | shrunken log2 fold change |
| --- | --- |
| RRIRCRPPRLPRPRPRPVYFPRP | -0.711 |
| RRIRMRPPRLPRPRPRPINKPRP | -0.375 |
| RRIRGRPPRLPRPRPRPHGDPRP | 1.11 |
| RRIRERPPRLPRPRPRPTMPPRP | -0.124 |
| RRIRGRPPRLPRPRPRPYKLPRP | -0.481 |
| RRIRNRPPRLPRPRPRPLAGPRP | 0.148 |
| RRIRIRPPRLPRPRPRPKDNPRP | -0.606 |
| RRIRARPPRLPRPRPRPFYKPRP | -0.009 |
| RRIRFRPPRLPRPRPRPQKWPRP | -0.0281 |
| RRIRQRPPRLPRPRPRPQDMPRP | 0.0179 |
| RRIRGRPPRLPRPRPRPSFSPRP | 0.154 |
| RRIRARPPRLPRPRPRPWCGPRP | 0.0572 |
| RRIRCRPPRLPRPRPRPERHPRP | -0.0311 |
| RRIRHRPPRLPRPRPRPLMNPRP | -0.642 |
| RRIRLRPPRLPRPRPRPNGRPRP | -0.192 |
| RRIRKRPPRLPRPRPRPLVAPRP | 0.805 |
| RRIRRRPPRLPRPRPRPDNPPRP | -0.582 |
| RRIRYRPPRLPRPRPRPIIYPRP | -0.522 |
| RRIRNRPPRLPRPRPRPNRLPRP | 0.0192 |
| RRIRGRPPRLPRPRPRPGNEPRP | 0.0696 |
| RRIRSRPPRLPRPRPRPHPVPRP | 0.12 |
| RRIRNRPPRLPRPRPRPTWYPRP | 0.0037 |
| RRIRYRPPRLPRPRPRPHYKPRP | -0.316 |
| RRIRLRPPRLPRPRPRPMGSPRP | -0.000911 |
| RRIRSRPPRLPRPRPRPFPKPRP | 0.107 |

| Sequence | shrunken log2 fold change |
| --- | --- |
| RRIRIRPPRLPRPRPRPTEGPRP | 0.00534 |
| RRIRSRPPRLPRPRPRPFVPPRP | -0.27 |
| RRIRVRPPRLPRPRPRPTGVPRP | 0.0149 |
| RRIRFRPPRLPRPRPRPYTMPRP | -1.06 |
| RRIRLRPPRLPRPRPRPKIEPRP | 0.0278 |
| RRIRVRPPRLPRPRPRPYAEPRP | -0.0642 |
| RRIRARPPRLPRPRPRPGGWPRP | 1.26 |
| RRIRLRPPRLPRPRPRPTWWPRP | 0.454 |
| RRIRMRPPRLPRPRPRPNFHPRP | -0.0453 |
| RRIRPRPPRLPRPRPRPLCPPRP | -0.128 |
| RRIRMRPPRLPRPRPRPEQNPRP | 2.47 |
| RRIRRRPPRLPRPRPRPLQCPRP | 0.18 |
| RRIRTRPPRLPRPRPRPHCIPRP | -0.489 |
| RRIRKRPPRLPRPRPRPCPSPRP | -0.0812 |
| RRIRWRPPRLPRPRPRPIMPPRP | -0.0977 |
| RRIRHRPPRLPRPRPRPFQGPRP | -0.0278 |
| RRIRPRPPRLPRPRPRPSICPRP | -0.718 |
| RRIRARPPRLPRPRPRPVYHPRP | -0.321 |
| RRIRMRPPRLPRPRPRPMLLPRP | 0.0485 |
| RRIRVRPPRLPRPRPRPTELPRP | 0.324 |
| RRIRARPPRLPRPRPRPSYTPRP | 1.56 |
| RRIRLRPPRLPRPRPRPRQQPRP | 0.319 |
| RRIRQRPPRLPRPRPRPNGDPRP | 0.0171 |
| RRIRHRPPRLPRPRPRPLEAPRP | -0.00262 |
| RRIRSRPPRLPRPRPRPLWSPRP | -0.0384 |

| Sequence | shrunken log2 fold change |
| --- | --- |
| RRIRIRPPRLPRPRPRPDHGPRP | 0.0143 |
| RRIRYRPPRLPRPRPRPDKSPRP | -1.15 |
| RRIRSRPPRLPRPRPRPGFDPRP | 0.455 |
| RRIRDRPPRLPRPRPRPAYNPRP | -0.764 |
| RRIRPRPPRLPRPRPRPAHEPRP | 0.356 |
| RRIRTRPPRLPRPRPRPPCPPRP | 0.15 |
| RRIRSRPPRLPRPRPRPGQLPRP | -0.17 |
| RRIRHRPPRLPRPRPRPRCSPRP | -0.236 |
| RRIRRRPPRLPRPRPRPMINPRP | -0.157 |
| RRIRHRPPRLPRPRPRPKHFPRP | 0.451 |
| RRIRDRPPRLPRPRPRPFMKPRP | -0.0698 |
| RRIRPRPPRLPRPRPRPENAPRP | 0.0319 |
| RRIRARPPRLPRPRPRPKWPPRP | 0.751 |
| RRIRLRPPRLPRPRPRPREVPRP | 0.59 |
| RRIRMRPPRLPRPRPRPKVIPRP | -0.259 |
| RRIRKRPPRLPRPRPRPHTQPRP | 0.13 |
| RRIRHRPPRLPRPRPRPFWSPRP | -0.0841 |
| RRIRHRPPRLPRPRPRPQRQPRP | 0.0621 |
| RRIRPRPPRLPRPRPRPLYMPRP | -0.673 |
| RRIRMRPPRLPRPRPRPKRDPRP | 1.15 |
| RRIRFRPPRLPRPRPRPGSQPRP | -0.117 |
| RRIRYRPPRLPRPRPRPNTGPRP | -0.195 |
| RRIRDRPPRLPRPRPRPAAIPRP | 0.272 |
| RRIRTRPPRLPRPRPRPGVPPRP | 0.202 |
| RRIRKRPPRLPRPRPRPHWQPRP | 0.3 |
